# Article PMC8455029
# How the values were obtained:
# [1] = molecular target: AtFN3K C32A/C236A/C196A (Arabidopsis thaliana); assay: SEC
# [2] = molecular target: AtFN3K C32A/C236A/C196A (Arabidopsis thaliana); assay: AUC
substance,measurement,setting,value
AtFN3K C32A/C236A/C196A (enzyme),stoichiometry N,[1],2
same,stoichiometry N,[2],2
